From a protein production outcome set (Wang et al. 2014)

Experiment: label from the status in PepcDB records
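Also: failed if final PepcDB status was selected cloned or expressed and not failed if soluble or beyond.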

| Sequence | protein production |
| --- | --- |
| MRTDDSALKNLGKGRESTTLEMKHRELCSGKTIDLGKKMRRALVLDNIRVQSLQLKIKAMTSSTTEQSVSETQIPLTSGIKLESLNYIVTVELGGKNMSLIVDTGSDLTWVQCQPCRSCYNQQGPLYDPSVSSSYKTVFCNSSTCQDLVAATSNSGPCGGNNGVVKTPCEYVVSYGDGSYTRGDLASESILLGDTKLENFVFGCGRNNKGLFGGSSGLMGLGRSSVSLVSQTLKTFNGVFSYCLPSLEDGASGSLSFGNDSSVYTNSTSVSYTPLVQNPQLRSFYILNLTGASIGGVELKSSSFGRGILIDSGTVITRLPPSIYKAVKIEFLKQFSGFPTAPGYSILDTCFNLTSYEDISIPIIKMIFQGNAELEVDVTGVFYFVKPDASLVCLALASLSYENEVGIIGNYQQKNQRVIYDTTQERLGIVGENCRV | failed |
| MRTIYVIGIGTGSPEFLTLQAISGLRHAQAIVALDKGEQKSDLLALRQKIVDTHAPGTPIYAVTDPERDRNPDNYEEEVRRWHAERAHLLASTIRERTPDDGAVAFLVWGDPSLYDSTLRIIEHMRNLEDLHADVKVIPGITAVQVLTAEHGILINRIGEAIHITTGRNLPETSAKDRRNCVVMLDGKTAWQDVATEHTYMWWGAFLGTEQQVLRKGYVHEIGAQVAELKQQLRTEHGWIMDTYLLRELD | not failed |
| MRTLKVQALWDGEAGVWVAESDDVPGLATEAATLEELLAKLAVMVPELLEENGVALELPVELRLEATRPLVFS | not failed |
| MRTLNTSAMDGTGLVVERDFSVRILTACFLSLLILSTLLGNTLVCAAVIRFRHLRSKVTNFFVISLAVSDLLVAVLVMPWKAVAEIAGFWPFGSFCNIWVAFDIMCSTASILNLCVISVDRYWAISSPFRYERKMTPKAAFILISVAWTLSVLISFIPVQLSWHKAKPTSPSDGNATSLAETIDNCDSSLSRTYAISSSVISFYIPVAIMIVTYTRIYRIAQKQIRRIAALERAAVHAKNCQTTTGNGKPVECSQPESSFKMSFKRETKVLKTLSVIMGVFVCCWLPFFILNCILPFCGSGETQPFCIDSNTFDVFVWFGWANSSLNPIIYAFNADFRKAFSTLLGCYRLCPATNNAIETVSINNNGAAMFSSHHEPRGSISKECNLVYLIPHAVGSSEDLKKEEAAGIARPLEKLSPALSVILDYDTDVSLEKIQPITQNGQHPT | failed |
| MRVAIAGAGAVGRSIAGELLENGHEVLLIDKAPTAISVERVPMAEWLLADACEITSLDEAALQRCNVVIAATGDDKVNLVVSLLAKTEYGVPRVVARVNNPKNEWLFNESWGVDVAVSTPRLMSALVEEAVSVGDLVRLLRFSHGDANLVELTLPEESALAGTQVGDVQWPEDTSLVTIIRGTRVLTPSREDSLEAGDELLFVAAQAREEQLEDLLSARRQPDGTL | failed |
| MRVAVVGATGAVGREILKVLEARNFPLSELRLYASPRSAGVRLAFRGEEIPVEPLPEGPLPVDLVLASAGGGISRAKALVWAEGGALVVDNSSAWRYEPWVPLVVPEVNREKIFQHRGIIANPNCTTAILAMALWPLHRAFQAKRVIVATYQAASGAGAKAMEELLTETHRFLHGEAPKAEAFAHPLPFNVIPHIDAFQENGYTREEMKVVWETHKIFGDDTIRISATAVRVPTLRAHAEAVSVEFARPVTPEAAREVLKEAPGVEVVDEPEAKRYPMPLTASGKWDVEVGRIRKSLAFENGLDFFVVGDQLLKGAALNAVQIAEEWLKGA | not failed |
| MRVCAVVVTYNRKDLLVECLEALRRQTGPLDAIYIIDNASTDGTPELLRSRGYRDGAVIENPLDGSEIVIRYVRLPVNTGGAGGFHEGVKRAFHDGYDWIWLMDDDAEPLPDSLQGLLRYADDDTAALANLKVSPDGRPQYIHRGFFDFDSFGTFVRPVTEDDLREETLEIDHASFVGILINSDSVREIGFPRKEFFLHYDDVEYCLRLRSTGKIILVPGSLILHKEAAERGNLTKGLFGREIPVVPYDKLWLRYYGVRNSIWLRRKEMGRARLFIFMVRAILLSVAAQIITGIREKPFRRVRFILSAYSDGLRGRFDNEKPRRILYG | failed |
| MRVFLCGPLASDGLRQRVLGSAPDGVPARLADHALGAAGATVSPMPAPGASVAGLVMELGAEAGARLLHYQTATGHEARTLAVAGAPALVFFAPPEGLEPWDEAAWGALWGPIVVATAGDVMALWPEVPAERIARRYRLMLVQGASRVRAAADPGPARRRHAAQPGDVRIVRRSQPYANFFAVEEYDLSFRSFGGGMSPTLNRAVFISGDAVTVVPYDPVRDRVLLIEQFRPGPLGRGDAQPWLLEPIAGRVDPGETPEAAARREAVEEAGLDLGALLPVASYYPTPAAKAEYLYSYVALAQLDDGIEGIFGMEGEGEDIRGHLMSFDEMMALIRSGEICNGPLLLTALWLDRERPRLRGE | failed |
| MRVGIKVLGCPKNEADCEVLAGVLREGGHEIVFDVKDADVVVLDTCAFIEDAKRESIDEIFSFVDAKDQYGYKLVVKGCLVQRYYEELKKEIPEVDQWIGVADPEEIANAIENGTDLVPDQPETVYRYRKRIDLEERPYAYVKISDGCDRGCTFCSIPSFKGSLRSRSIEDITREVEDLLKEGKKEIILVAQDTTSYGIDLYRKQALPDLLRRLNSLNGEFWIRVMYLHPDHLTEEIISAMLELDKVVKYFDVPVQHGSDKILKLMGRTKSSEELKKMLSSIRERFPDAVLRTSIIVGFPGETEEDFEELKQFVEEIQFDKLGAFVYSDEEGTVAFNLKEKVDPEMAKRRQEELLLLQAEISNSRLDRFVGKKLKFLVEGKEGKFLVGRTWTEAPEVDGVVFVRGKGKIGDFLEVVIKEHDEYDMWGSVILEHHHHHH | not failed |
| MRVISRRTSLILFSGLVFVLASMLLYLYLNSGSEQTQTYNESRDLIRQLKQQDAVWENEVLKARVAVSHNYDPLVIPLKEMKRLWARFDRREAEQGRDESDQWRDAHDGFLSAFGEKARLVEQFKSHNALLRNSLAFLPTAEDGIQAQINTMLAPNRQEVHVFVTDTYDLLLSALEFAQVTSVERAAEIEVGLGNLAVNTENLPKEFQTPLNLLSNHVALILREQPVVNRLLEQIEAIPVAERLDTITSLLDRDQQQVEKINRKNHLYTLWLSGLLMFSVICLAALLVRSFAEVRRVNNALQSANDVLEQRVEERTLALRNAQSELFNAARQAGMAEIATNVLHNVGNVLNSVNTSSDLIARTLRSSKTQGLGKAMQLFREHATDIGRFLDEDPRGRLLPGYLNQLTEAIADEQKEMAIELERMNKSIDHIKEVVATQQSYAGAKNVPEPLSVNDLVEDALRMNAGALTRHQVRVVRDFADLPLVMGDRHRLLLILINLISNAKYAMSGPGSDPRTMILRTRIVEGGLLEMSVLDEGEGIAPENLQKIFAHGFTTRKDGHGFGLHSCALAAIEMNGHLTAHSDGPGLGAVFTLRIPLIAVTEPA | failed |
| MRVLVLHSHPVEESYGKALYRQTVESLQKAGHMVDGCDLYEERFDPVLSRHDRLAYHDYPENLKLVESHVERLKAAEGLVICTPIWNFGFPAILKGYFDRVWLPGVSFELVNGKVESRLRHIRKLAAVLTYGATPFRAFAAGNPPKKIVKRVLRAQINPVRPVTFLAHYDMNNCTPETRAKFLARVGGAMERF | failed |
| MRVPLDEIDKKIIKILQNDGKAPLREISKITGLAESTIHERIRKLRESGVIKKFTAIIDPEALGYSMLAFILVKVKAGKYSEVASNLAKYPEIVEVYETTGDYDMVVKIRTKNSEELNNFLDLIGSIPGVEGTHTMIVLKTHKETTELPIK | not failed |
| MRVSCLSLPWHTPKALLHETITQTYLLWHIVLEHMDIVIVGAGRVGSRTARVVTNEDHAVTVIEQDYDRAERARTEGFDVVEGDGTSEDTLLDAGIDTADAIGALTSDLNTNFIACMVGNHHDCRTVLRIDEDYREDIYRKYADEVDEIVYPERLGAIGAKNALLGGNVTAIADLAEHLQVVQLTVTDEAPMRGYSISELELPAGARLLAFGKHDASLALPLPSETLETGDRIAVLAEFDTLDSVRQILVGNAPPTEVA | failed |
| MRVSVVIPARNEEAYLPSALEAVLAQTLPPFEVIVVDNASTDRTREVAEALGARVVFCGRRGVAYARQAGLLAARGEWVAMTDADSLPTPRWLERLAHKAPGAVAVYGPLRFYGVSPLEAALSEWGYRAFLNLMALLGRPNLAGANMMVLKEAALRVGGFPEVEAREDVLLGWRLKALGPVRYAGDALVLTSARRLQGGWGRFLLRQARNLLGDPRGYFGEAGERERLEHHHHHH | not failed |
